Measurements published in patent US11130803B2, “Isoform-selective TGFβ1 inhibitors and use thereof” (Scholar Rock, Inc., priority 2018, dated 2021).
Like-named read-outs stand apart in the source and are kept apart here. Blank lines part the entries; values can stand above or below the molecule they belong to.

Experiments:
[1] = test system: mouse models of injury, Marfan's syndrome, and muscular dystrophy; conditions: in vivo; cited from earlier work
[2] = test system: human patients; conditions: in vivo; cited from earlier work
[3] = human, in vivo; cited from earlier work
[4] = test system: non-diseased rat BAL; conditions: cited from earlier work
[5] = test system: mdx mice; conditions: cited from earlier work
[6] = target: T1, recombinant human GARP-proTGFβ1 complex (Homo sapiens, UniProt P01137); experiment: Octet (Biolayer Interferometry) in vitro kinetic binding; conditions: in M
T1 construct: made in house
Text: (§1) Biolayer Interferometry (BLI):BLI is a label-free technology for optically measuring biomolecular interactions, e.g., between a ligand immobilized on the biosensor tip surface and an analyte in solution. BLI provides the ability to monitor binding specificity, rates of association and dissociation, or concentration, with precision and accuracy. BLI platform instruments are commercially available, for example, from ForteBio and are commonly referred to as the Octet® System.
(§2) BLI-based binding assays are widely used in the art for measuring affinities and kinetics of antibodies to antigens. It is a label-free technology in which biomolecular interactions are analyzed on the basis of optical interference. One of the proteins, for example, an antibody being tested, can be immobilized on the biosensor tip. When the other protein in solution, for example, an antigen, becomes bound to the immobilized antibody, it causes a shift in the interference pattern, which can be measured in real-time. This allows the monitoring of binding specificity, rates of association and dissociation, as well as concentration dependency. […] Due to its ease of use and fast results, BLI-based assays such as the Octet® system (available from ForteBio/Molecular Devices, Fremont Calif.), are particularly convenient when used as an initial screening method to identify and separate a pool of “binders” from a pool of “non-binders” or “weak binders” in the screening process.
(§3) Table 8 below provides non-limiting examples of high-affinity, context-independent proTGFβ1 antibodies encompassed by the present invention. The table provides representative results from in vitro binding assays, as measured by Octet®.
(§4) Column (A) of the table lists monoclonal antibodies with discrete amino acid sequences. […] Columns (B), (D), (E) and (F) provide affinities of each of the listed antibodies, measured in KD. […] Average KD values of (B) and (C) are shown in the corresponding column (D), which collectively represents affinities of the antibodies to ECM- or matrix-associated proTGFβ1 complexes. Similarly, Average KD values of (E) and (F) are shown in the corresponding column (G), which collectively represents affinities of the antibodies to cell-surface or cell-associated proTGFβ1 complexes. Finally, relative ratios between the average KD values from columns (D) and (G) are expressed as “fold bias” in column (H). Thus, the greater the number of column (H) is, the greater bias exists for the particular antibody, when comparing binding preferences of the antibody for matrix-associated complexes and cell-surface complexes. This is one way of quantitatively representing and comparing inherent bias of antibodies to their target complexes. Such analyses may be useful in guiding the selection process for a candidate antibody for particular therapeutic use.
(§5) In some embodiments, the binding affinity of an antibody, or antigen binding portion thereof, to an antigen (e.g., protein complex), such as presenting molecule-proTGFβ1 complexes, is determined using an Octet assay. In some embodiments, an Octet assay is an assay that determines one or more a kinetic parameters indicative of binding between an antibody and antigen. In some embodiments, an Octet® system (ForteBio, Menlo Park, Calif.) is used to determine the binding affinity of an antibody, or antigen binding portion thereof, to presenting molecule-proTGFβ1 complexes. For example, binding affinities of antibodies may be determined using the fortéBio Octet QKe dip and read label free assay system utilizing bio-layer interferometry. In some embodiments, antigens are immobilized to biosensors (e.g., streptavidin-coated biosensors) and the antibodies and complexes (e.g., biotinylated presenting molecule-proTGFβ1 complexes) are presented in solution at high concentration ([…]) to measure binding interactions. […]

[7] = target: T2, recombinant human LTBP1-proTGFβ1 complex (Homo sapiens, UniProt P01137); experiment: as above; conditions: in M
T2 construct: made in house; host or cells: Expi293F cells, transient co-transfection
Text: as §1, §2, §3, §4, §5

[8] = target: T3, recombinant human LRRC33-proTGFβ1 complex (Homo sapiens, UniProt P01137); experiment: as above; conditions: in M
T3 construct: made in house
Text: as §1, §2, §3, §4, §5

[9] = target: T4, recombinant human LTBP3-proTGFβ1 complex (Homo sapiens, UniProt P01137); experiment: as above; conditions: in M
T4 construct: made in house; host or cells: Expi293F cells, transient co-transfection
Text: as §1, §2, §3, §4, §5

[10] = test system: matrix-associated (LTBP1/LTBP3) and cell-associated (GARP/LRRC33) proTGFβ1 complexes; experiment: Octet: average KD and fold bias, matrix- vs cell-associated complexes; format: binding, human; conditions: average KD of (B) and (C), read-out: (D) ECM AVRG
[11] = test system: matrix-associated (LTBP1/LTBP3) and cell-associated (GARP/LRRC33) proTGFβ1 complexes; experiment: as above; format: binding, human
Text: Column (A) of the table lists monoclonal antibodies with discrete amino acid sequences. […] Columns (B), (D), (E) and (F) provide affinities of each of the listed antibodies, measured in KD. […] Average KD values of (B) and (C) are shown in the corresponding column (D), which collectively represents affinities of the antibodies to ECM- or matrix-associated proTGFβ1 complexes. Similarly, Average KD values of (E) and (F) are shown in the corresponding column (G), which collectively represents affinities of the antibodies to cell-surface or cell-associated proTGFβ1 complexes. Finally, relative ratios between the average KD values from columns (D) and (G) are expressed as “fold bias” in column (H). […] This is one way of quantitatively representing and comparing inherent bias of antibodies to their target complexes.
Average KD values between the two matrix-associated and cell-associated complexes are calculated, respectively (see columns (D) and (G)). These average KD values can then be used to ask whether bias in binding activities exists between complexes associated with matrix vs. complexes associated with cell surface (e.g., immune cells). Bias may be expressed as “fold-difference” in the average KD values, as illustrated in Table 8.

[12] = test system: MBT2 tumors, intratumoral immune cells; experiment: MBT2 tumor immune contexture (flow cytometry, IHC, qPCR); conditions: mouse, in vivo
Text: To study the immune effects of anti-PD-1 or AB6-mIgG1 treatment as single agents or in combination, MBT-2 tumors were harvested from mice 10 days after treatment initiation and then subjected to immunohistochemical and flow cytometry analyses of select immune cell markers. […] The relevance of this increase in Treg cells is unclear given the significant anti-tumor effects observed with combination treatment. […] This appears to be due to selective reduction in CD11b+CD206+ and CD11b+Gr1+ subpopulations, which correspond to immunosuppressive M2-like macrophages and myeloid-derived suppressor cells (MDSC), respectively. Collectively, the representation of these two populations of cells is reduced from an average of 47% of the CD45+ cell population to 14% after combination treatment (FIG. 34B).
Each study group contained 12 mice with MBT2 tumors as described herein. Ab6-treatment group received the antibody weekly, on day 1 and day 8, at 10 mg/kg. […]
Tumor-associated immune cell subsets were also analyzed by tumor flow cytometry in MBT-2 tumors. […] Flow cytometry was performed on a Attune NxT (ThermoFisher) and analyzed with FlowJo (BD Bioscience).
For immunohistochemical analysis, tumors from six animals were cut in halves and fixed. […] FIG. 36E provides the quantitation of the IHC data, shown as % of CD8-positive cells of total nuclei. […]

T3 sequence (P01137 30-390): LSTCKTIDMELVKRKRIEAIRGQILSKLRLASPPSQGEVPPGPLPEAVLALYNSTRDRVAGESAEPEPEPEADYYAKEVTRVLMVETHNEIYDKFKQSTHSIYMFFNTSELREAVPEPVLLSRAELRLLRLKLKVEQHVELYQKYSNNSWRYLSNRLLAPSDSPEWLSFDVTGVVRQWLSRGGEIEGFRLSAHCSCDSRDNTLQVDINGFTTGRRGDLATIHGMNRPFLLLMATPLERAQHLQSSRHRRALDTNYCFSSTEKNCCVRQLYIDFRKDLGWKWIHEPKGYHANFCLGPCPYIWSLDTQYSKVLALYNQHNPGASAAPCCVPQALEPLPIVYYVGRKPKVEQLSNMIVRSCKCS
T3 sequence (Q86YC3 19-650 partner limits assumed): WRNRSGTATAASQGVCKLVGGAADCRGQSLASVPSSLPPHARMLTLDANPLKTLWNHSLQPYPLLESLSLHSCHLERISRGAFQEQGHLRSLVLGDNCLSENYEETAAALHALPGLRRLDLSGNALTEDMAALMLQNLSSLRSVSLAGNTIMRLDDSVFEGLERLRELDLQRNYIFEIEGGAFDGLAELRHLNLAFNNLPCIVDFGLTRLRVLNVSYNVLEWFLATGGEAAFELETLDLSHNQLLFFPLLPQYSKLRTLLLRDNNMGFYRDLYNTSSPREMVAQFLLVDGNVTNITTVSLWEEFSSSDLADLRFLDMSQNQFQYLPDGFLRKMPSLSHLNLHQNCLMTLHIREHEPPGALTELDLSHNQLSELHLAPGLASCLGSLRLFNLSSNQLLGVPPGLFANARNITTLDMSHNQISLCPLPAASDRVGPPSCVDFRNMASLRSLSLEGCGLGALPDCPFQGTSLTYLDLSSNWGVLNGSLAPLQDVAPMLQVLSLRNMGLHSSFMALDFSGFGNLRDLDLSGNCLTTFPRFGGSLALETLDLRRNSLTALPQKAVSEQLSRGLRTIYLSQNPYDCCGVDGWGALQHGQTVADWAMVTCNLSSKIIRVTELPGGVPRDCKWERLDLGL
T1 sequence (P01137 30-390): as the sequence (P01137 30-390) above
T1 sequence (Q14392 20-627 partner limits assumed): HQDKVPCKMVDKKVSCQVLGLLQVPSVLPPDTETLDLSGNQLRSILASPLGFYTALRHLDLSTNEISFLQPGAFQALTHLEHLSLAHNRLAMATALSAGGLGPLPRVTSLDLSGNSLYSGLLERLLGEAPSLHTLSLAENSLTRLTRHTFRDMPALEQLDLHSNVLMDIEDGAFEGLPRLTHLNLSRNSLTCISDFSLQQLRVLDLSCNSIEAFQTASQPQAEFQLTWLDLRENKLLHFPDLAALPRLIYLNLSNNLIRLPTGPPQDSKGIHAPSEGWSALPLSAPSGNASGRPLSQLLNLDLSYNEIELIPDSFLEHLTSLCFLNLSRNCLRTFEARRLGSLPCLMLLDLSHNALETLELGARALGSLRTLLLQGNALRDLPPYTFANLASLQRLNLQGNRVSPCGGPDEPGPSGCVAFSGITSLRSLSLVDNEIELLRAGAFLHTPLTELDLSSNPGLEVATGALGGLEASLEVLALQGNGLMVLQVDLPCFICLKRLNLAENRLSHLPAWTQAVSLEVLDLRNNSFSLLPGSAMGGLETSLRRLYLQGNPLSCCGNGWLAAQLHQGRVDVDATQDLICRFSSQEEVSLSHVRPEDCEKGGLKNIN
T2 sequence (P01137 30-390): as the sequence (P01137 30-390) above
T2 sequence (Q14766 873-1507 partner): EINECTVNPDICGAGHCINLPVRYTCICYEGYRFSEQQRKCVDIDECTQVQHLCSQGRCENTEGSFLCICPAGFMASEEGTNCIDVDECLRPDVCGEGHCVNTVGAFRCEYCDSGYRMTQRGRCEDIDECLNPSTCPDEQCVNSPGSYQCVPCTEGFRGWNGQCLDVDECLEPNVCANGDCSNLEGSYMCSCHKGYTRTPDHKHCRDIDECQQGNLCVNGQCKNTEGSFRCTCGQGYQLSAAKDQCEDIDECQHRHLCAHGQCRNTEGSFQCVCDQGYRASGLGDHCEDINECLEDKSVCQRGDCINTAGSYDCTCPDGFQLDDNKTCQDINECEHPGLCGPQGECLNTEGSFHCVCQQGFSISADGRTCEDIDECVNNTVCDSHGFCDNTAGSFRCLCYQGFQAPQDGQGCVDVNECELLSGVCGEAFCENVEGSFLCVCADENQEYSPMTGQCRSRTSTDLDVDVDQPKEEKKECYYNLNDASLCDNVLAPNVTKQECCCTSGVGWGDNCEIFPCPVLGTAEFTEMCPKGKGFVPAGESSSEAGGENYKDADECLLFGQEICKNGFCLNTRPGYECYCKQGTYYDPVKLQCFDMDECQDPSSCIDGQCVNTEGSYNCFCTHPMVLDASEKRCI
T4 sequence (P01137 30-390): as the sequence (P01137 30-390) above
T4 sequence (Q9NS15 866-1039 partner limits assumed): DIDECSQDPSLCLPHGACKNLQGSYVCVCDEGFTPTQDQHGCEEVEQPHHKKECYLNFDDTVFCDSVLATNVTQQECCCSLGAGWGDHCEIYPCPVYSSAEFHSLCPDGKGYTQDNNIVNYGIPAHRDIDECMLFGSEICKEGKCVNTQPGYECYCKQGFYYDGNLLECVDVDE

Molecule: Cc1ccc(C(=O)Nc2ccc(S(=O)(=O)O)c3cc(S(=O)(=O)O)cc(S(=O)(=O)O)c23)cc1NC(=O)c1cccc(NC(=O)Nc2cccc(C(=O)Nc3cc(C(=O)Nc4ccc(S(=O)(=O)O)c5cc(S(=O)(=O)O)cc(S(=O)(=O)O)c45)ccc3C)c2)c1 [suramin]
muscle pathology and fibrosis [1]: effective in improving muscle pathology and reducing fibrosis

Molecule: GC1008: human analog of 1D11; pan-TGFβ antibody
previously reported adverse events [2]: leukocytosis (grade 3), fatigue (grade 3), hypoxia (grade 3), asystole (grade 5), leukopenia (grade 1), recurrent, transient, tender erythematous, nodular skin lesions, suppurative dermatitis, and herpes zoster
Exposure: DN Cmax [3]: DN Cmax ~(350 ng/mL)mg (ng/mL)mg
Exposure: Half life [3]: Half life: 21.7 d

Molecule: CCCCc1nc(Cl)c(CO)n1Cc1ccc(-c2ccccc2-c2nn[nH]n2)cc1 [losartan]
muscle pathology and fibrosis [1]: effective in improving muscle pathology and reducing fibrosis

Molecule: c1ccc(-c2nn3c(c2-c2ccnc4cc(OCCN5CCOCC5)ccc24)CCC3)nc1 [LY2109761]
TGFβ downstream tonic signaling [4]: inhibit TGFβ downstream tonic signaling

B1: decorin: proteoglycan abundant in skeletal muscle that inhibits TGFβ activity (protein, UniProt P07585 31-359, looked up)
Decorin: DEASGIGPEVPDDRDFEPSLGPVCPFRCQCHLRVVQCSDLGLDKVPKDLPPDTTLLDLQNNKITEIKDGDFKNLKNLHALILVNNKISKVSPGAFTPLVKLERLYLSKNQLKELPEKMPKTLQELRAHENEITKVRKVTFNGLNQMIVIELGTNPLKSSGIENGAFQGMKKLSYIRIADTNITSIPQGLPPSLTELHLDGNKISRVDAASLKGLNNLAKLGLSFNSISAVDNGSLANTPHLRELHLDNNKLTRVPGGLAEHKYIQVVYLHNNNISVVGSSDFCPPGHNTKKASYSGVSLFSNPVQYWEIQPSTFRCVYVRSAIQLGNYK
muscle fibrosis [5]: decreases muscle fibrosis

(E) hGARP, Cell-associated proTGFb1 (KD) [6]: 1.15E−08
(B) hLTBP1, Matrix-associated proTGFb1 (KD) [7]: 3.12E−10
(F) hLRRC33, Cell-associated proTGFb1 (KD) [8]: 1.02E−09
(C) hLTBP3, Matrix-associated proTGFb1 (KD) [9]: 2.57E−10
B2: Ab18: monoclonal antibody; VH SEQ ID NO: 249, VL SEQ ID NO: 241 (antibody, V domains shown)
VH: QVQLVESGGGVVQPGRSLRLSCAASGFTFSDYAMVWVRQAPGKGLEWVSAISGSGAATYFADSVKGRFTISRDNSKNTLYLQMNSLRAEDTAVYYCATVSSGHWDFDYWGQGTLVTVSS
VL: DIQLTQSPSSLSASVGDRVTITCRASQSISSYLNWYQQKPGKAPKLLIYAASNLQSGVPSRFSGSGSGTDFTLTISSLQPEDFATYYCQQTYTVPLTFGGGTKVEIK
Kd [10]: 0.284 nM
Kd ([11]; average KD of (E) and (F), cell-associated complexes, read-out: (G) Cell AVRG): 6.26 nM
(H) G/D (fold bias) ([11]; ratio of average KD cell-associated / matrix-associated): 22.00 fold

B3: Ab6-mIgG1: chimeric antibody with the human V domains of Ab6 fused to mouse IgG1/kappa constant domains (protein)
heavy chain: EVQLVESGGGLVQPGGSLRLSCTASGFTFSSFSMDWVRQAPGKGLEWVSYISPSADTIYYADSVKGRFTISRDNAKNTLYLQMNSLRAEDTAVYYCARGVLDYGDMLMPWGQGTLVTVSS
light chain: DIQMTQSPSSLSASVGDRVTITCQASQDITNYLNWYQQKPGKAPKLLIYDASNLETGVPSRFSGSGSGTDFTFTISSLQPEDIATYYCQQADNHPPWTFGGGTKVEIK
phospho-Smad3 staining at tumor vascular endothelium (IHC) [12]: much diminished
